{
  "source": "patent US20200255543A1",
  "about": "(ROCKEFELLER UNIVERSITY, published 2020)",
  "binders": {"B1": {"name": "monoclonal antibody M19 (antibody, V domains shown)", "VH": "EVQLEESGPDLKKPGETVKISCKASNYTFTDYSMHWVKQAPGKGLKWVGWINTDTGEPTYADDFKGRFAFSLETSASTAYLQINNLKNEDTATYFCARWFGAMDYWGQGTSVTVSS", "VL": "DIVITQSHKFMSTSVGDRVSITCKASQDVTNVVAWYQQKPGQSPKLLIYSASYRYTGVPDRFTGSGSGTDFTFTISSVQAEDLAVYYCQQYYRTPRTFGGGTKLEIKR", "notes": "Mouse hybridoma monoclonal antibody; Hybridoma supernatant was used in the ELISA screen, purified antibody in biolayer interferometry; also called Mer-M19"}},
  "key": {"recombinant mouse MERTK [1]": {"target": "T1, recombinant mouse MERTK (mouse, UniProt Q60805 23-496, limits assumed)", "T1 construct": "Analyte in solution in biolayer interferometry; also called msMer; murine MERTK", "T1 sequence (looked up)": "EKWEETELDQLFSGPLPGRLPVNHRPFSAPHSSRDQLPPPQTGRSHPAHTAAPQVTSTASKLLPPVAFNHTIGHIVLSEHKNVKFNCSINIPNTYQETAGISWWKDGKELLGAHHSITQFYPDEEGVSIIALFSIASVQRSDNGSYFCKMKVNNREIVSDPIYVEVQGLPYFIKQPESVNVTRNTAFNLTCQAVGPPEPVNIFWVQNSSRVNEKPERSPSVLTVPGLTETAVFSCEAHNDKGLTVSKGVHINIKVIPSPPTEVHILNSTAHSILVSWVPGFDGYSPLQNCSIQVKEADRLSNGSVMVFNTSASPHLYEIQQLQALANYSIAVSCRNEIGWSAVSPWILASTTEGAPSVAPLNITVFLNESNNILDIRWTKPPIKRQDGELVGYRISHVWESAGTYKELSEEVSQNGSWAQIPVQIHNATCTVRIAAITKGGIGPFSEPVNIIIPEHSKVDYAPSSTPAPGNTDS", "experiment": "biolayer interferometry, M19 loaded on AMQ sensor at 1 ug/mL, msMer in solution at 0.625 nM, local 1:1 fit", "description": "(§1) FIG. 8: M19 binds to murine MERTK with high affinity. A diagram showing antibody binding kinetics for M19 (Mer-M19) against murine MERTK (msMer) using biolayer interferometry. Purified M19 was loaded on an AMQ sensor at a concentration of 1 microgram/mL to test binding against analytes in solution. All analytes were prepared at 5 nM with a 2-fold dilution series for a total of 7 concentrations. Kinetic fits were calculated using a 1:1 model, with Local fits for each concentration as well as an overall Global fit.\n(§2) To characterize the binding affinity of M19 antibody against recombinant human and mouse MERTK, biomolecular interaction analysis was performed using biolayer interferometry (FIG. 7 and FIG. 8). Binding was observed between M19 and both mouse and human MERTK."}, "recombinant human MERTK [2]": {"target": "T2, recombinant human MERTK (human, UniProt Q12866 21-505, limits assumed)", "T2 construct": "Analyte in solution in biolayer interferometry; also called hMer", "T2 sequence": "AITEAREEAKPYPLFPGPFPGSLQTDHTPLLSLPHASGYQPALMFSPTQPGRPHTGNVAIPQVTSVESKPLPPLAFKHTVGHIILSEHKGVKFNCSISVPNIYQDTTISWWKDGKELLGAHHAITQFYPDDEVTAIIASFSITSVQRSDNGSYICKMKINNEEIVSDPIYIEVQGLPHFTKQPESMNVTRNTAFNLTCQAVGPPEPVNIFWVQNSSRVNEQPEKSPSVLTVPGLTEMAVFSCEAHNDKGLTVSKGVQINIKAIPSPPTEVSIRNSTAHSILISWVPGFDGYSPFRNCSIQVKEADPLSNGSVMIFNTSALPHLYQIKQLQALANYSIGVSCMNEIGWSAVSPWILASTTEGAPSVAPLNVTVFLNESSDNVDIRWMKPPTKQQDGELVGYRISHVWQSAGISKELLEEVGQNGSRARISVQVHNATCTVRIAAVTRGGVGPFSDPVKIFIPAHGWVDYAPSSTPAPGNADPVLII", "experiment": "biolayer interferometry, M19 loaded on AMQ sensor at 1 ug/mL, hMer in solution at 0.3125 nM, local 1:1 fit", "description": "(§3) FIG. 7: M19 binds to human MERTK with high affinity. A diagram showing antibody binding kinetics for M19 (Mer-M19) against human MERTK (hMer) using biolayer interferometry. Purified M19 was loaded on an AMQ sensor at a concentration of 1 microgram/mL to test binding against analytes in solution. All analytes were prepared at 5 nM with a 2-fold dilution series for a total of 7 concentrations. Kinetic fits were calculated using a 1:1 model, with Local fits for each concentration as well as an overall global fit.\nas §2"}, "recombinant human MERTK [3]": {"target": "T2, recombinant human MERTK", "experiment": "biolayer interferometry, M19 loaded on AMQ sensor at 1 ug/mL, hMer in solution at 0.625 nM, local 1:1 fit", "description": "as §3, §2"}, "recombinant human MERTK [4]": {"target": "T2, recombinant human MERTK", "experiment": "biolayer interferometry, M19 loaded on AMQ sensor at 1 ug/mL, hMer in solution at 1.25 nM, local 1:1 fit", "description": "as §3, §2"}, "recombinant human MERTK [5]": {"target": "T2, recombinant human MERTK", "experiment": "biolayer interferometry, M19 loaded on AMQ sensor at 1 ug/mL, hMer in solution at 0.0781 nM, local 1:1 fit", "description": "as §3, §2"}, "recombinant mouse MERTK [6]": {"target": "T1, recombinant mouse MERTK", "experiment": "biolayer interferometry, M19 loaded on AMQ sensor at 1 ug/mL, msMer in solution at 5 nM, local 1:1 fit", "description": "as §1, §2"}, "recombinant mouse MERTK [7]": {"target": "T1, recombinant mouse MERTK", "experiment": "biolayer interferometry, M19 loaded on AMQ sensor at 1 ug/mL, msMer in solution at 1.25 nM, local 1:1 fit", "description": "as §1, §2"}, "recombinant mouse MERTK [8]": {"target": "T1, recombinant mouse MERTK", "experiment": "biolayer interferometry, M19 loaded on AMQ sensor, msMer analyte from 5 nM in 2-fold dilutions, 1:1 model, global fit", "description": "as §1"}, "recombinant human MERTK [9]": {"target": "T2, recombinant human MERTK", "experiment": "biolayer interferometry, M19 loaded on AMQ sensor at 1 ug/mL, hMer in solution at 2.5 nM, local 1:1 fit", "description": "as §3, §2"}, "recombinant mouse MERTK [10]": {"target": "T1, recombinant mouse MERTK", "experiment": "biolayer interferometry, M19 loaded on AMQ sensor at 1 ug/mL, msMer in solution at 5 to 0.0781 nM, global 1:1 fit", "description": "as §1, §2"}},
  "data": [
    {"binder": "B1", "values": [
      {"measurement": "Kd", "setting": "recombinant mouse MERTK [1]", "result": 0.198, "unit": "nM"},
      {"measurement": "koff", "setting": "recombinant mouse MERTK [1]", "result": 0.00137, "unit": "s⁻¹"},
      {"measurement": "kon", "setting": "recombinant mouse MERTK [1]", "result": "6.92e+06", "unit": "M⁻¹ s⁻¹"},
      {"measurement": "Kd", "setting": "recombinant human MERTK [2]", "result": 0.128, "unit": "nM"},
      {"measurement": "koff", "setting": "recombinant human MERTK [2]", "result": 0.000968, "unit": "s⁻¹"},
      {"measurement": "kon", "setting": "recombinant human MERTK [2]", "result": "7.57e+06", "unit": "M⁻¹ s⁻¹"},
      {"measurement": "Kd", "setting": "recombinant human MERTK [3]", "result": 0.155, "unit": "nM"},
      {"measurement": "koff", "setting": "recombinant human MERTK [3]", "result": 0.00079, "unit": "s⁻¹"},
      {"measurement": "kon", "setting": "recombinant human MERTK [3]", "result": "5.11e+06", "unit": "M⁻¹ s⁻¹"},
      {"measurement": "Kd", "setting": "recombinant human MERTK [4]", "result": 0.297, "unit": "nM"},
      {"measurement": "koff", "setting": "recombinant human MERTK [4]", "result": 0.00102, "unit": "s⁻¹"},
      {"measurement": "kon", "setting": "recombinant human MERTK [4]", "result": "3.44e+06", "unit": "M⁻¹ s⁻¹"},
      {"measurement": "Kd", "setting": "recombinant human MERTK [5]", "result": 0.0765, "unit": "nM"},
      {"measurement": "koff", "setting": "recombinant human MERTK [5]", "result": 0.000934, "unit": "s⁻¹"},
      {"measurement": "kon", "setting": "recombinant human MERTK [5]", "result": "1.22e+07", "unit": "M⁻¹ s⁻¹"},
      {"measurement": "Kd", "setting": "recombinant mouse MERTK [6]", "result": 0.354, "unit": "nM"},
      {"measurement": "koff", "setting": "recombinant mouse MERTK [6]", "result": 0.00133, "unit": "s⁻¹"},
      {"measurement": "kon", "setting": "recombinant mouse MERTK [6]", "result": "3.77e+06", "unit": "M⁻¹ s⁻¹"},
      {"measurement": "Kd", "setting": "recombinant mouse MERTK [7]", "result": 0.282, "unit": "nM"},
      {"measurement": "koff", "setting": "recombinant mouse MERTK [7]", "result": 0.00149, "unit": "s⁻¹"},
      {"measurement": "kon", "setting": "recombinant mouse MERTK [7]", "result": "5.27e+06", "unit": "M⁻¹ s⁻¹"},
      {"measurement": "Kd", "setting": "recombinant mouse MERTK [8]", "result": 0.305, "unit": "nM"},
      {"measurement": "Kd", "setting": "recombinant human MERTK [9]", "result": 0.339, "unit": "nM"},
      {"measurement": "koff", "setting": "recombinant human MERTK [9]", "result": 0.000899, "unit": "s⁻¹"},
      {"measurement": "kon", "setting": "recombinant human MERTK [9]", "result": "2.65e+06", "unit": "M⁻¹ s⁻¹"},
      {"measurement": "koff", "setting": "recombinant mouse MERTK [10]", "result": 0.00144, "unit": "s⁻¹"},
      {"measurement": "kon", "setting": "recombinant mouse MERTK [10]", "result": "4.71e+06", "unit": "M⁻¹ s⁻¹"}
    ]}
  ]
}
